# Reference: the DeepSol protein solubility set
# Assay: soluble on expression in E. coli; label from the status in PepcDB or PDB records
row,Sequence,soluble on expression in E. coli
1,MSLKALDEPPYLTVGTDVSAKYRGAFCEAKIKTAKRLVKVKVTFRHDSSTVEVQDDHIKGPMKVGAIVEVKNLDGAYQEAVINKLTDASWYTVVFDDGDEKTLRRSSLCLKGERHFAESETLDQLPLTNPEHFGTPVIGKKTNRGRRSNHIPEEESSSSSSDEDEDDRKQIDELLGKVVCVDYISLDKKKALWFPALVVCPDCSDEIAVKKDNIMVRSFKDGKFTSVPRKDVHEITSDTAPKPDAVLKQAFEQALEFHKSRTIPANWKTELKEDSSSSEAEEEEEEEDDEKEKEDNSSEEEEEIEPFPEERENFLQQLYKFMEDRGTPINKRPVLGYRNLNLFKLFRLVHKLGGFDNIESGAVWKQVYQDLGIPVLNSAAGYNVKCAYKKYLYGFEEYCRSANIEFQMALPEKVVNKQCKECENVKEIKVKEENETEIKEIKMEEERNIIPREGHHHHHH,soluble
2,MGSDKIHHHHHHMTMTFALRDPAQVLARALELRVDVSPETAEVEHELGALHDRMRRPGDRLHDMPHMPSGLPGLRLRYREADGEIFVYVEDVASRQLAGYTVFNRLIEVGRRADPWVRSPHTKFAPPYQRLGLASGLYRWALDGGLCLLSGARQSAGAHALWQSLGRRYALGYVDLRYKTLTSLGEQVSAVVKDDLHTRMLLLGHGWTLGRFKEATGMY,not soluble
3,MMSETGFIDVKIFPQRLLKPETAEKLLNRIYELEGIVRVLVHGPSIPDRVYYGPARGTEVNHSDRRKITVRGEEFELRVKVGEIIVGMLPETLEEKMETIEEILDEVLPCSYKVFIGAFTKKDITISDYLKYGLKFEEKIDPRVIGMVDPSSRMKDTVVNIKLEHHHHHH,soluble
4,MGSDKIHHHHHHMSLITDLPAIFDQFSEARQKGFLTVMDLKEQNVPLVGTYCTFMPQEIAMAAGAVVVSLCSTSDETIEEAEKDLPRNLCPLIKSSYGFGKTDKCPYFYFSDLVVGETTCDGKKKMYEYMAEFKAVHVMQLPNSASDAASRALWKTEILRLQQVIEARFGTPISEAALREAIVLKNRERRALAHFYRLGQLNPPALSGGDILKVVYGATFRFDKTALIDELHAMAERIHQEWQQGKRLEPRPRILITGCPIGGAAEKVVRAIEENGGWVVGYENCTGAKATERCVAEEGDVYDALTDKYLAIGCSCISPNDQRLQLLSQMVEEYQADGVIDVILQACHTYAVESLAIKRHLRQQHDLPYMAIETDYSTADLGQLSTRVAAFIEML,not soluble
5,MGSDKIHHHHHHMDTPINAPLRKLPIGIQSFEKLRSENFLYVDKTALIYRLAQAGNPCFLSRPRRFGKSLLLSSFEAYFQGKKELFRGLAIEKLEKEWLQYPVLHLSLNAEKYDSREGLIDILERQLRQWEELYRTGGEGITHSGRFMTVIRRACEQTGRRVVVLIDEYDKPLLRSFDSQELQHDFRETLTAFYTVLKDADPWLQFVFITGVTKFAQMGIFSNLNQLNDISFDLDYNTLCGMTRAEIEATFSPELEALAVKSNATCRQVMDRLTRQYDGYRFTKDEEFTSMYNPFSVLSALQKRSYGNYWFASGTPTFLVEMLQKTDFDLREMEGIEVNEASLSDDRADINNPIPMIYQSGYLTIKDYDERFRMYTLGFPNEEVKYGFLNFVSPFYTPIAQTDTSFYIGKFIRELESGDVDAFLTRLRCFFAGIPYDLNDRTERHYQTVFYLVFQLMGQFTETEVRSARGRADAVVKTPDYIYVFEFKLNDSAEAALRQIDEKGYLLPYQADGRKVVKVGVAFEKEERNIGEWMIGG,not soluble
6,MGSDKIHHHHHHMGVTGNNYTKIFHRMYWDGTPTPTQLAQELSKHGLAITGISLWQLYNGTLQFPIYVATERQLKSTQWVTFHRRKQLRCCPAGVFSVEYPVLAITNLSDAQAIETLEGAYAKAQGAKFAAEHARQYVPQRNRELLRRAVVGVDSPPEKLLITALREQGIDCHANVLVGDYRWDIQLDRHRVLIEVDGFEFHRFKPENQDAFVRDRWKTNDATLRGYLCLHYAARSVYRHTAVIVDQVQAAIRVAPARGYPFDASAMWHRGCWKWS,not soluble
7,GPGSMVEYKSAAAIAQALFTTHGKDSTTFNRLLRDRIGKRGDRFTEDHPDTFLYIERSKNANVVAYTARFVDAETKKPVPSGVGRDCIIKHDGPVHAYFITLDPQQMEKLRAKGRTSLIDDLNFVQRKMAYGCSGKSFDVASASRECDNPADFKRWMSAFDPYTLSYVALAKYPTLLLTLKPVKDSNGEENDTAVALIAVIGGELSVVKKIYVSSTEPKHFYELPTVNYIEVFGVSVDKGSDTYEKKAP,not soluble
8,MIAEAAAVEVQANEAPVVAPIMYKVESNDGKVFEISDEAVKQSNILSNLISTCAPEDVASMDPIPITNVTGNILKMVIEWCEKHKGEALPVEDDSVPKNINVPEWDTNFLKIDNEVLFDLIVACNYLDVPGLMNYGCKMVANMAIGKSPDELRIIFAIPTDEEDEAAERAAKEKAEAEKKAIADKDAAEPSTSK,soluble
9,MSLDPRKVNELRAFVKMCKQDPSVLHTEEMRFLREWVESMGGKVPPATQKAKSEENTKEEKPDSKKVEEDLKADEPSSEESDLEIDKEGVIEPDTDAPQEMGDENAEITEEMMDQANDKKVAAIEALNDGELQKAIDLFTDAIKLNPRLAILYAKRASVFVKLQKPNAAIRDCDRAIEINPDSAQPYKWRGKAHRLLGHWEEAAHDLALACKLDYDEDASAMLKEVQPRAQKIAEHRRKYERKREEREIKERIERVKKAREEHERAQREEEARRQSGAQYGSFPGGFPGGMPGNFPGGMPGMGGGMPGMAGMPGLNEILSDPEVLAAMQDPEVMVAFQDVAQNPANMSKYQSNPKVMNLISKLSAKFGGQAEGHHHHHH,soluble
10,MATPAYMSITGTKQGLITAGAFTEDSVGNTYQEGHEDQVMVQGFNHEVIIPRDPQSGQPTGQRVHKPVVITKVFDKASPLLLAALTSGERLTKVEIQWYRTSAAGTQEHYYTTVLEDAIIVDIKDYMHNCQDPGNAHFTHLEDVHFTYRKITWTHEVSGTSGSDDWRSPVAG,soluble
11,MSLAHFSVLPPEINSLRMYLGAGSAPMLQAAAAWDGLAAELGTAASSFSSVTTGLTGQAWQGPASAAMAAAAAPYAGFLTTASAQAQLAAGQAKAVASVFEAAKAAIVPPAAVAANREAFLALIRSNWLGLNAPWIAAVESLYEEYWAADVAAMTGYHAGASQAAAQLPLPAGLQQFLNTLPNLGIGNQGNANLGGGNTGSGEGHHHHHH,not soluble
12,MGSDKIHHHHHHMLLKSPDKSPEKILKLFDEVYSKARIFYLLRTAIDLNLFEYLSSFKTAKELAEILDADLILMEYMLKILNELDLIESKVVSERIYYKNAEITNIYLKKDSNYSIINPIYSYFENIKNWENLADILKNKSNCSNMDVDNFFPKVVRRMADECKCWELQKVLNYMAKYEEFKNAKKLLDLAGGHGLYAIGFSMLNRNLKCYVFDLPNVIEETKKFIKKYNAKNVFTITGDFYKDDIGKGYDIIFCSYNPGGKNPKIAEKVYNALNEGGLFINKQFFPDKEEGIEDYINNMEWNFSKPEGLKKGKIRYTFEGDLNLNDYLKYLEDLGFKILEVVDMSELLGLDENSSSFRKSANPSDSLRFKDNSPAKMIVAKKL,not soluble
13,MAHHHHHHMDEGDHSDKESVGEEIVGEDHVEDKDGKPKRSYEKMVEEIKIENSKSFISKISEPLLKKKYFKYFLKILDYAYYAKVTAMQIIKTNEQIEERKKKILKNKFVVIGITQVVKAIRKGVDGIVFLAIDVFPIDIICHMPVFCEEHKIPYTFVTTKNKLARLCKLKRSVTCLFLPKPNIDIDKFEATVNEFSSKKKISNYAKLYEKMLSGVKKNHPFFQS,soluble
14,MGSDKIHHHHHHMSFTTWTPPAVASERQPFALTLWRAVEAQHVVSTMPLVDSLDEQAVLEAVLDAGKPAVPAEARHLHYLLFTPFRYPPSPWGSRFRAGQDPGVFYGAEEIRTACAELGYWRWRFLNDSPALPRIDARAQTLFQVSVRTEGVALDTPPFDRDSAQWTDPDSHEACQAFGRIAREAGIGLIRYTSVRDPGHGPCGAVMTPRAFDHPLPLATTTWMLTVRRDRVIWQRDDLQQRDSFEFAASLWQRTSERSPEG,not soluble
15,MGSDKIHHHHHHQTKAEKNGWRLGMQSYSFHLFPLTEALDKTQELGLKYIEIYPGHKLGGKWGDKVFDFNLDAQTQKEIKELAASKGIKIVGTGVYVAEKSSDWEKMFKFAKAMDLEFITCEPALSDWDLVEKLSKQYNIKISVHNHPQPSDYWKPENLLKAISGRSQSLGSCSDVGHWRREGLNQIDCLKQLKGRIISLHFKDIAPKKAGENEQHDVIWGTGILDVKGMLKELKSQNFKGVFSIEYEYNWENSVPDIKECIQYFNKTANEIL,not soluble
